Data reported in IntAct's records for PubMed 23238393.

B1: Ubiquitin-like protein ATG12B (Arabidopsis thaliana (Mouse-ear cress)), Q9LVK3 (parent)
chain: MATESPNSVQKIVVHLRATGGAPILKQSKFKVSGSDKFANVIDFLRRQLHSDSLFVYVNSAFSPNPDESVIDLYNNFGFDGKLVVNYACSMAWG
partner: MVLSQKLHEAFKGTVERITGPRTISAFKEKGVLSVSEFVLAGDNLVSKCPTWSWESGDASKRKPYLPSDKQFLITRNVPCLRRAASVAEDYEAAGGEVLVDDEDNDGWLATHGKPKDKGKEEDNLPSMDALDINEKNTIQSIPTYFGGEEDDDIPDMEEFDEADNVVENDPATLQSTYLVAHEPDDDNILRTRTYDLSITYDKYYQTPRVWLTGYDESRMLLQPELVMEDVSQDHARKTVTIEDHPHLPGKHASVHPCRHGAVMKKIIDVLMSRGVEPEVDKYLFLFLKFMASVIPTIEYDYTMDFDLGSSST

Variants of: B1
Conditions: with atg3_arath ATG3, Q0WWQ1

Variant	effect of a mutation on the interaction
Y57A	decreasing interaction

Variants of: B1
Conditions: with atg3_arath ATG3, Q0WWQ1
Remark: another data set of the same source

Variant	effect of a mutation on the interaction
F62A	decreasing interaction
